Assay results from the Human Domainome abundance scans (Beltran et al. 2025).
± gives the uncertainty stated by the source.

B1: Steroid hormone receptor ERR2, residues 100 to 176; numbered along this chain, O95718 (parent)
chain: KRLCLVCGDIASGYHYGVASCEACKAFFKRTIQGNIEYSCPATNECEITKRRRKSCQACRFMKCLKVGMLKEGVRLD

Variants of: B1
Assay: abundance fitness (aPCA) (normalised: wild type 0, dead -1); higher = more abundant; growth selection in yeast, the domain comes from the species named
Conditions: Homo sapiens

Q: Which abundance fitness does the source give for KRLCLVCGDIASGYHYGVASCEACKAFFKRTIQGNIEYSCPATNECEITKRARKSCQACRFMKCLKVGMLKEGVRLD [R52A] here?
A: -0.037 ± 0.054

Q: Which abundance fitness does the source give for KRLCLVCGDIASGYHYGVASCEACKAFFKRTIQGNIEYSCPATNECEITKRWRKSCQACRFMKCLKVGMLKEGVRLD [R52W] here?
A: -0.043 ± 0.066

Q: With KRLCLVCGDIASGYHYGVASCEACKAFFKRTIQGNIEYSCPATNECEITKRTRKSCQACRFMKCLKVGMLKEGVRLD [R52T] as the variant, how does the abundance fitness read?
A: 0.039 ± 0.069

Q: Which abundance fitness does the source give for KRLCLVCGDIASGYHYGVASCEACKAFFKRTIQGNIEYSCPATNECEITKRQRKSCQACRFMKCLKVGMLKEGVRLD [R52Q] here?
A: 0.128 ± 0.069

Q: For KRLCLVCGDIASGYHYGVASCEACKAFFKRTIQGNIEYSCPATNECEITKRCRKSCQACRFMKCLKVGMLKEGVRLD [R52C], which abundance fitness is on record?
A: -0.86 ± 0.38

Q: With KRLCLVCGDIASGYHYGVASCEACKAFFKRTIQGNIEYSCPATNECEITKRGRKSCQACRFMKCLKVGMLKEGVRLD [R52G] as the variant, how does the abundance fitness read?
A: 0.062 ± 0.045

Q: With KRLCLVCGDIASGYHYGVASCEACKAFFKRTIQGNIEYSCPATNECEITKRERKSCQACRFMKCLKVGMLKEGVRLD [R52E] as the variant, how does the abundance fitness read?
A: 0.136 ± 0.051

Q: For KRLCLVCGDIASGYHYGVASCEACKAFFKRTIQGNIEYSCPATNECEITKRMRKSCQACRFMKCLKVGMLKEGVRLD [R52M], which abundance fitness is on record?
A: -0.084 ± 0.085

Q: Which abundance fitness does the source give for KRLCLVCGDIASGYHYGVASCEACKAFFKRTIQGNIEYSCPATNECEITKRKRKSCQACRFMKCLKVGMLKEGVRLD [R52K] here?
A: -0.115 ± 0.086

Q: With KRLCLVCGDIASGYHYGVASCEACKAFFKRTIQGNIEYSCPATNECEITKRDRKSCQACRFMKCLKVGMLKEGVRLD [R52D] as the variant, how does the abundance fitness read?
A: -0.242 ± 0.23

Q: Which abundance fitness does the source give for KRLCLVCGDIASGYHYGVASCEACKAFFKRTIQGNIEYSCPATNECEITKRLRKSCQACRFMKCLKVGMLKEGVRLD [R52L] here?
A: 0.099 ± 0.054

Q: With KRLCLVCGDIASGYHYGVASCEACKAFFKRTIQGNIEYSCPATNECEITKRYRKSCQACRFMKCLKVGMLKEGVRLD [R52Y] as the variant, how does the abundance fitness read?
A: -0.452 ± 0.21

Q: With KRLCLVCGDIASGYHYGVASCEACKAFFKRTIQGNIEYSCPATNECEITKRHRKSCQACRFMKCLKVGMLKEGVRLD [R52H] as the variant, how does the abundance fitness read?
A: -0.627 ± 0.32

Q: Which abundance fitness does the source give for KRLCLVCGDIASGYHYGVASCEACKAFFKRTIQGNIEYSCPATNECEITKRPRKSCQACRFMKCLKVGMLKEGVRLD [R52P] here?
A: -0.339 ± 0.1

Q: Which abundance fitness does the source give for KRLCLVCGDIASGYHYGVASCEACKAFFKRTIQGNIEYSCPATNECEITKRSRKSCQACRFMKCLKVGMLKEGVRLD [R52S] here?
A: -0.155 ± 0.068

Q: For KRLCLVCGDIASGYHYGVASCEACKAFFKRTIQGNIEYSCPATNECEITKRVRKSCQACRFMKCLKVGMLKEGVRLD [R52V], which abundance fitness is on record?
A: -0.003 ± 0.057

Q: For KRLCLVCGDIASGYHYGVASCEACKAFFKRTIQGNIEYSCPATNECEITKRFRKSCQACRFMKCLKVGMLKEGVRLD [R52F], which abundance fitness is on record?
A: -0.056 ± 0.13

Q: For KRLCLVCGDIASGYHYGVASCEACKAFFKRTIQGNIEYSCPATNECEITKRNRKSCQACRFMKCLKVGMLKEGVRLD [R52N], which abundance fitness is on record?
A: -0.156 ± 0.15

Q: For KRLCLVCGDIASGYHYGVASCEACKAFFKRTIQGNIEYSCPATNECEITKRRRDSCQACRFMKCLKVGMLKEGVRLD [K54D], which abundance fitness is on record?
A: 0.092 ± 0.077

Q: Which abundance fitness does the source give for KRLCLVCGDIASGYHYGVASCEACKAFFKRTIQGNIEYSCPATNECEITKRRRRSCQACRFMKCLKVGMLKEGVRLD [K54R] here?
A: 0.008 ± 0.044

Q: With KRLCLVCGDIASGYHYGVASCEACKAFFKRTIQGNIEYSCPATNECEITKRRRTSCQACRFMKCLKVGMLKEGVRLD [K54T] as the variant, how does the abundance fitness read?
A: -0.024 ± 0.066

Q: With KRLCLVCGDIASGYHYGVASCEACKAFFKRTIQGNIEYSCPATNECEITKRRRGSCQACRFMKCLKVGMLKEGVRLD [K54G] as the variant, how does the abundance fitness read?
A: 0.155 ± 0.043

Q: For KRLCLVCGDIASGYHYGVASCEACKAFFKRTIQGNIEYSCPATNECEITKRRRESCQACRFMKCLKVGMLKEGVRLD [K54E], which abundance fitness is on record?
A: 0.129 ± 0.055

Q: For KRLCLVCGDIASGYHYGVASCEACKAFFKRTIQGNIEYSCPATNECEITKRRRFSCQACRFMKCLKVGMLKEGVRLD [K54F], which abundance fitness is on record?
A: -0.243 ± 0.12

Q: With KRLCLVCGDIASGYHYGVASCEACKAFFKRTIQGNIEYSCPATNECEITKRRRASCQACRFMKCLKVGMLKEGVRLD [K54A] as the variant, how does the abundance fitness read?
A: 0.009 ± 0.055

Q: Which abundance fitness does the source give for KRLCLVCGDIASGYHYGVASCEACKAFFKRTIQGNIEYSCPATNECEITKRRRCSCQACRFMKCLKVGMLKEGVRLD [K54C] here?
A: -0.351 ± 0.1

Q: For KRLCLVCGDIASGYHYGVASCEACKAFFKRTIQGNIEYSCPATNECEITKRRRVSCQACRFMKCLKVGMLKEGVRLD [K54V], which abundance fitness is on record?
A: 0.007 ± 0.045

Q: For KRLCLVCGDIASGYHYGVASCEACKAFFKRTIQGNIEYSCPATNECEITKRRRYSCQACRFMKCLKVGMLKEGVRLD [K54Y], which abundance fitness is on record?
A: 0.091 ± 0.08

Q: With KRLCLVCGDIASGYHYGVASCEACKAFFKRTIQGNIEYSCPATNECEITKRRRWSCQACRFMKCLKVGMLKEGVRLD [K54W] as the variant, how does the abundance fitness read?
A: -0.05 ± 0.058

Q: With KRLCLVCGDIASGYHYGVASCEACKAFFKRTIQGNIEYSCPATNECEITKRRRLSCQACRFMKCLKVGMLKEGVRLD [K54L] as the variant, how does the abundance fitness read?
A: 0.005 ± 0.049

Q: Which abundance fitness does the source give for KRLCLVCGDIASGYHYGVASCEACKAFFKRTIQGNIEYSCPATNECEITKRRRHSCQACRFMKCLKVGMLKEGVRLD [K54H] here?
A: 0.144 ± 0.11

Q: With KRLCLVCGDIASGYHYGVASCEACKAFFKRTIQGNIEYSCPATNECEITKRRRNSCQACRFMKCLKVGMLKEGVRLD [K54N] as the variant, how does the abundance fitness read?
A: 0.175 ± 0.086

Q: For KRLCLVCGDIASGYHYGVASCEACKAFFKRTIQGNIEYSCPATNECEITKRRRISCQACRFMKCLKVGMLKEGVRLD [K54I], which abundance fitness is on record?
A: 0.073 ± 0.093

Q: Which abundance fitness does the source give for KRLCLVCGDIASGYHYGVASCEACKAFFKRTIQGNIEYSCPATNECEITKRRRQSCQACRFMKCLKVGMLKEGVRLD [K54Q] here?
A: 0.195 ± 0.065

Q: With KRLCLVCGDIASGYHYGVASCEACKAFFKRTIQGNIEYSCPATNECEITKWRRKSCQACRFMKCLKVGMLKEGVRLD [R51W] as the variant, how does the abundance fitness read?
A: 0.022 ± 0.14
